Experimental data from US20230295293A1, “BINDING MOLECULES AGAINST FRa” (AstraZeneca AB, priority 2022, published 2023).

B1: AB1370026 (hybridoma IgG) (antibody, V domains shown)
VH: EVQLVESGGGLVKPGGSLRLSCAASGFTFSSYAMSWVRQAPGKGLEWVSSISSGRSYIYYADSVKGRFTISRDNAKNSLYLKMNSLRDEDTAVYYCAREMQQLALDYWGQGTLVTVSS
VL: DIQMTQSPSSLSASVGDRVTITCRASQGISNFLAWFQQAPGKAPKSLIYAASSLQSGVPSKFSGSGSGTDFTLTISSLQPEDFATYYCQQYNSYPFTFGQGTKLEIK
B2: AB1370083 (hybridoma IgG) (antibody, V domains shown)
VH: EVQLVESGGGLVKPGGSLRLSCAASGFTFSSYNMNWVRQAPGKGLEWVSSISSGSSYIYYADSMKGRFTISRDNAKNSLFLQMNSLRAEDTAVYYCARGMTTLTFDYWGQGTLVTVSS
VL: DIQMTQSPSSLSASVGDRVTITCRASQGISTFLAWFQQKPGKAPKSLIYAASSLQSGVPSKFSGSGSETDFTLTISSLQPEDFATYYCQQYISYPLTFGGGTKVEIK
B3: AB1370095 (hybridoma IgG) (antibody, V domains shown)
VH: EVQLVESGGGLVKPGGSLRLSCAASGFTFSSYSMNWVRQAPGKGLEWVSSISSRSSYVYYADSVKGRFTISRDNAKNSLYLQMNSLRAEDTAVYYCARGMTTLTFDYWGQGTLVTVSS
VL: DIQMTQSPSSLSASVGDRVTITCRASQGISSFLAWFQQKPGKAPKSLIYAASSLQSGVPSKFSGSGSGTDFTLTISSLQPEDFATYYCQQYNSYPLTFGGGTKVEIK
B4: AB1370035 (hybridoma IgG) (antibody, V domains shown)
VH: QVQLQQSGPGLVKPSQTLSLTCAISGDSVSSNSAAWNWIRQSPSRGLEWLGRTYYRSNWYNDYTLSVKSRITVNPDTSKNQFSLQLNSVTPEDTAVYYCVRGVGRFDSWGQGTLVTVSS
VL: DIQMTQSPSTLSASVGDRVIITCRASQSISSWLAWYQQKPGKAPKLLIYKASSLESGVPSRFSGSGSGTEFTLTITSLQPDDFASYYCQEYKTYSIFTFGPGTKVDIK

What was measured:
[1] = molecular target: Cyno FRα ECD-Avi-His (cynomolgus monkey); assay: HTRF antigen binding assay; hybridoma supernatant at 25%, 1 nM biotinylated antigen
Cyno FRα ECD-Avi-His (cynomolgus monkey), sequence (chain, as listed by the source limits assumed): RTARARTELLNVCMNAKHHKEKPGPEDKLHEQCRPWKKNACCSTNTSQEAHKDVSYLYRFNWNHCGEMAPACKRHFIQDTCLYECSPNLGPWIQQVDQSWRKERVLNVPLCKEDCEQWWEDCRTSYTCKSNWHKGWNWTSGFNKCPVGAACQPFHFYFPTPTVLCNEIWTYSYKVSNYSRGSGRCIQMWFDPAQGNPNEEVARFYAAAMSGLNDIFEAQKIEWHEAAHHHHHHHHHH

[2] = molecular target: Human FRα ECD-Avi-His (human); assay: as above
Human FRα ECD-Avi-His (human), sequence (chain, as listed by the source limits assumed): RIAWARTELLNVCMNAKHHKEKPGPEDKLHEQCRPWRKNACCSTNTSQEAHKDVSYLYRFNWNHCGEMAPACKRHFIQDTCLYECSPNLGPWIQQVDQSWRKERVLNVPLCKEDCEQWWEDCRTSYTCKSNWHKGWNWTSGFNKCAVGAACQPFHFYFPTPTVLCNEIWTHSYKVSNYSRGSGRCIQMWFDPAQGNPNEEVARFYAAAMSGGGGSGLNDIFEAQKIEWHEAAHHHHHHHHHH

Binder | % Delta F [1] [% Delta F] | % Delta F [2] [% Delta F]
B1 | 214 | 271
B2 | 85.2 | 140
B3 | 85.3 | 126
B4 | 141 | 225
